From article PMC6139572, “Structural and functional effects of myosin-binding protein-C phosphorylation in heart muscle are not mimicked by serine-to-aspartate substitutions” (The Journal of Biological Chemistry, 2018) come the findings set out here.

Common to all, as to settings: both partners purified
Assay [1] has as its target T1, myosin S2Δ, the first 126 amino acids of myosin sub-fragment 2 (rat heart) (rat, Alexa 647 (labelled with Alexa 647–NHS, efficiency of ~80%)).
T1 construct: cardiac myosin heavy chain cloned from a rat heart cDNA library; the first 126 amino acids of myosin S2; also called Alexa 647–myosin S2Δ; source: E. coli BL21(DE3)-RIPL, purified (HisTrapFF, TEV, Mono Q); not shown: His6, N-terminal, cleaved
Kind of assay: MST; as a2 (pH 7, 50 mmol/liter KCl); 30 °C.

The target in assay [2] is T1, myosin S2Δ, the first 126 amino acids …. The assay can be described thus: MST; isolated m-motif titrated against 100 nmol/liter Alexa 647–myosin S2Δ; MST buffer adjusted to pH 6.2, enhanced gradient standard capillaries; 50 mmol/liter KCl; 30 °C.
Assay [3] has as its target isolated native thin filaments (UniProt P68032 1-377). Kind of assay: co-sedimentation; high-velocity co-sedimentation of C1mC2 constructs with isolated native thin filaments; performed as described in ref. 15.

B1: C1–C2, construct containing Ig domains C1 and C2 of rat cardiac myosin-binding protein-C connected by a flexible linker, with the m-motif deleted (domain or fragment)
chain: PIGLFLMRPQDGEVTVGGSIVFSARVAGASLLKPPVVKWFKGKWVDLSSKVGQHLQLHDSYDRASKVYLFELHITDAQATSAGGYRCEVSTKDKFDSCNFNLTKKSTAFQKKLEPAYQVNKGHKIRLTVELADPDAEVKWLKNGQEIQMSGRYIFESIGAKRTLTISQCSLADDAAYQCVVGGEKCSTELFVKEP
B1 came in with a Kd in assay [1] of 477 µM.

B2: isolated m-motif of rat cardiac myosin-binding protein-C (domain or fragment)
chain: VHEAIGSGDLDLRSAFRRTSLAGTGRRTSDSHEDAGTLDFSSLLKKSSFRRDSKLEAPAEEDVWEILRQAPPSEYERIAFQHGVTDLRGMLKRLKGMKHDE
B2: the Kd in assay [2] stood at 41.1 µM.

B3: C1mC2 of rat cardiac myosin-binding protein-C with three phosphorylatable serines mutated to aspartate (domain or fragment)
chain: PIGLFLMRPQDGEVTVGGSIVFSARVAGASLLKPPVVKWFKGKWVDLSSKVGQHLQLHDSYDRASKVYLFELHITDAQATSAGGYRCEVSTKDKFDSCNFNLTVHEAIGSGDLDLRSAFRRTDLAGTGRRTDDSHEDAGTLDFSSLLKKSDFRRDSKLEAPAEEDVWEILRQAPPSEYERIAFQHGVTDLRGMLKRLKGMKHDEKKSTAFQKKLEPAYQVNKGHKIRLTVELADPDAEVKWLKNGQEIQMSGRYIFESIGAKRTLTISQCSLADDAAYQCVVGGEKCSTELFVKEP
Regarding B3, the Kd in assay [3] came out at 16 µM.

The term Kd denotes the concentration at which binding is half-saturated.
